# Experimental data as given in US20130172235A1, “ORAL TREATMENT OF INFLAMMATORY BOWEL DISEASE” (Novozymes A/S, priority 2011, published 2013).
# Ends that are not written are not given here.
# Tested on: Dextran Sodium Sulphate (DSS)-induced colitis
# Assay: 10-Day Dextran Sodium Sulphate (DSS)-induced colitis model in the mouse
# Type: in vivo, Male C57BL/6 mice
# Parameters: key to Disease Activity Index (DAI): clinical DAI score, daily maximum 12
# Details: for Disease Activity Index (DAI): mean ± SEM, n=10; for additional DAI score without the change in body weight (only stool consistency and rectal bleeding): oral, 10-day treatment; for additional DAI score without the change in body weight (only stool consistency and rectal bleeding) / inhibition of the disease activity index (DAI): vs. vehicle
# Description: 10-Day Dextran Sodium Sulphate (DSS)-Induced Colitis Model in the Mouse
# The aim of the following study was to determine the anti-inflammatory activity of human beta defensin 2 in an acute (10-days) model of inflammatory bowel disease (colitis) induced by oral dextran sodium sulphate (DSS) administration in the mouse.
# Study design: animals were divided into 5 experimental groups. Each group consisted of 10 males: Group A: Treated with Control vehicle (PBS) p.o. twice daily. Group B: Treated with methylprednisolone (1 mg/kg p.o. twice daily). Group C: Treated with hBD2 (0.05 mg/kg p.o. twice daily). Group D: Treated with hBD2 (0.5 mg/kg p.o. […]). Group E: Treated with hBD2 (5 mg/kg p.o. […]). Animal allocation to all experimental groups was done in a randomized manner. A maximum of 5 mice were housed in each cage (as per Directive 86/609/EEC). All animals were weighed on their arrival at the laboratory and prior to the administration of the test items.
# The control vehicle and hBD2 were administered orally with the use of a sterile cannula in a dosing volume of 10 ml/kg body weith. The animals of all groups recieved 2 doses daily (at 9.00 h and 17.00 h) of the corresponding test item (test, reference or vehicle) for 10 consecutive days (experimental days 1-10).
# Colitis was induced in mice by supplementing their drinking water with DSS 2% for 7 days. On Day 1 all mice were weighed and marked according to their experimental groups. The drinking bottle of each cage was filled with the DSS solution, making sure all bottle lids were mounted properly and that none were congested. On Day 3 any remaining solution in the bottles was emptied and refilled with fresh DSS solution. This procedure was repeated again on Day 5. On Day 8 any remaining solution was discarded and replaced with autoclaved water. Animals were sacrificed 2 days later on Day 10.
# Daily clinical assessment of DSS-treated animals was carried out, with the calculation of a validated clinical Disease Activity Index (DAI) ranging from 0 to 4 according to the following parameters: stool consistency, presence or absence of rectal bleeding and weight loss:
# Bodyweight loss was calculated as the percent difference between the original bodyweight (Day 1) and the actual bodyweight on each experimental day (2-10). The appearance of diarrhoea is defined as mucus/faecal material adherent to anal fur. Rectal bleeding is defined as diarrhoea containing visible blood/mucus or gross rectal bleeding. The maximum score of the DAI each day is 12.
# On day 10, two hours after the last administration of control vehicle, hBD2 or prednisolone, the animals were killed by an overdose of anaesthetic. Their colons were removed and their length and weight measured after exclusion of the caecum. Two sections (proximal and distal) of colon were taken from each animal and preserved in neutral buffered formalin for subsequent histological analysis (haematoxylin and eosin staining) according to the following scoring system:
# Description Score: No changes observed (0). Minimal scattered mucosal inflammatory cell infiltrates, with or without minimal epithelial hyperplasia (1). Mild scattered to diffuse inflammatory cell infiltrates, sometimes extending into the submucosa and associated with erosions, with minimal to mild epithelial hyperplasia and minimal to mild mucin depletion from goblet cells (2). Mild to moderate inflammatory cell infiltrates that were sometimes transmural, often associated with ulceration, with moderate epithelial hyperplasia and mucin depletion (3). Marked inflammatory cell infiltrates that were often transmural and associated with ulceration, with marked epithelial hyperplasia and mucin depletion (4). Marked transmural inflammation with severe ulceration and loss of intestinal glands (5). […]
# [1] = prednisolone 1 mg/kg p.o. twice daily (Group B), day 10
compound,measurement,setting,value
"C[C@H]1C[C@@H]2[C@H]([C@@H](O)C[C@@]3(C)[C@H]2CC[C@]3(O)C(=O)COC(=O)CCC(=O)O)[C@@]2(C)C=CC(=O)C=C12 [Methylprednisolone 21-hemisuccinate, reference compound]",Disease Activity Index (DAI),"Prednisolone 1 mg/kg p.o. twice daily, Day 6 as printed, P < 0.01 vs. vehicle",7 ± 0.33
same,additional DAI score without the change in body weight (only stool consistency and rectal bleeding),,very significant anti-inflammatory activity
same,histological injury induced by DSS in the distal colon,[1],significantly reduced
same,histological injury induced by DSS in the proximal colon,[1],significantly reduced
same,body weight,"prednisolone 1 mg/kg p.o. twice daily (group B), from day 2 until the end of the study",significant decrease
same,inhibition of the disease activity index (DAI),reference item prednisolone 1 mg/kg p.o. twice daily,significant inhibition
"Human beta defensin 2 (GIGDPVTCLKSGAICHPVFCPRRYKQIGTCGLPGTKCCKKP; ends and bridges not checked; cysteine pairing not given here; listed as Homo sapiens) [hBD2, human beta defensin 2 (hBD2]",Disease Activity Index (DAI),"hBD2 0.05 mg/kg p.o., Day 6, max score 12, P < 0.01 vs. vehicle",1.2 ± 0.59
same,Disease Activity Index (DAI),"hBD2 0.05 mg/kg p.o., Day 7, P < 0.05 vs. vehicle",1.9 ± 0.66
same,Disease Activity Index (DAI),"hBD2 0.05 mg/kg p.o., Day 8, P < 0.001 vs. vehicle",4.5 ± 0.86
same,Disease Activity Index (DAI),"hBD2 0.05 mg/kg p.o., Day 9, P < 0.001 vs. vehicle",5.6 ± 0.54
same,Disease Activity Index (DAI),"hBD2 0.05 mg/kg p.o., Day 10, P < 0.05 vs. vehicle",8 ± 0.73
same,Disease Activity Index (DAI),"hBD2 0.5 mg/kg p.o., Day 6, P < 0.05 vs. vehicle",1.7 ± 0.67
same,Disease Activity Index (DAI),"hBD2 0.5 mg/kg p.o., Day 9, P < 0.05 vs. vehicle",7.1 ± 0.61
same,Disease Activity Index (DAI),"hBD2 0.5 mg/kg p.o., Day 10, P < 0.01 vs. vehicle",7.3 ± 0.7
same,Disease Activity Index (DAI),"hBD2 5 mg/kg p.o., Day 3, P < 0.05 vs. vehicle",0.5 ± 0.27
same,Disease Activity Index (DAI),"hBD2 5 mg/kg p.o., Day 4, P < 0.05 vs. vehicle",0.6 ± 0.27
same,Disease Activity Index (DAI),"hBD2 5 mg/kg p.o., Day 5, P < 0.05 vs. vehicle",1.8 ± 0.76
same,Disease Activity Index (DAI),"hBD2 5 mg/kg p.o., Day 6, P < 0.05 vs. vehicle",1.4 ± 0.6
same,Disease Activity Index (DAI),"hBD2 5 mg/kg p.o., Day 7, P < 0.05 vs. vehicle",2.1 ± 0.96
same,Disease Activity Index (DAI),"hBD2 5 mg/kg p.o., Day 8, P < 0.01 vs. vehicle",5.4 ± 0.87
same,Disease Activity Index (DAI),"hBD2 5 mg/kg p.o., Day 9, P < 0.001 vs. vehicle",5.2 ± 0.76
same,Disease Activity Index (DAI),"hBD2 5 mg/kg p.o., Day 10, P < 0.001 vs. vehicle",5.6 ± 0.48
same,inhibition of the disease activity index (DAI),"hBD2 at three dose levels (0.05, 0.5, 5 mg/kg) via the oral route",significant inhibition
same,histological damage in the proximal colon,"hBD2 twice daily, at 3 dose levels, p.o., day 10",significant reduction
same,histological damage in the distal colon,"hBD2 twice daily, at the intermediate and high dose levels, p.o., day 10",significant reduction
same,body weight compared to the control group,"high dose of the test item (5 mg/kg p.o.), day 10, P<0.05",significant increase
same,additional DAI score without the change in body weight (only stool consistency and rectal bleeding),,very significant anti-inflammatory activity
